Results reported in paper PMC10576128.
Read-outs that look alike come from different tables or passages of the source.

Key:
[1] = target: ProTα E56C/D110C labeled with Alexa Fluors 488 and 594 (human) (UniProt P06454); experiment: FRET or BRET
[2] = target: ProTα-H1 dimer (PH) of labeled ProTα E56C/D110C and unlabeled H1 (human) (UniProt P06454); experiment: FRET or BRET
[3] = target: prothymosin α (unlabeled) (human) (UniProt P06454); experiment: ITC
[4] = target: ProTα E56C/D110C labeled with Alexa Fluors 488 and 594 (human) (UniProt P06454); experiment: FRET or BRET; remark: listed apart in the source
[5] = target: prothymosin α (unlabeled) (human) (UniProt P06454); experiment: ITC; remark: listed apart in the source
[6] = target: ProTα-H1 dimer (PH) of labeled ProTα E56C/D110C and unlabeled H1 (human) (UniProt P06454); experiment: FRET or BRET; remark: listed apart in the source
[7] = target: ProTα-H1 dimer (PH) of unlabeled ProTα and unlabeled H1 (human) (UniProt P06454); experiment: FRET or BRET

Row | Molecule | Kd [1] | Kd [2] | dH [3] | Kd [4] | dH [5] | Kd [6] | Kd [7]
1 | linker histone H1 (from UniProt P07305 1-194) (natural protein) | 1.2 nM | 13000 nM | 8.37 kcal/mol | 0.92 nM | 13.9 kcal/mol | 120 nM | –
2 | prothymosin α (unlabeled) (natural protein) MSDAAVDTSSEITTKDLKEKKEVVEEAENGRDAPANGNAENEENGEQEADNEVDEEEEEGGEEEEEEEEGDGEEEDGDEDEEAESATGKRAAEDDEDDDVDTKKQKTDEDD | – | – | – | – | – | – | 3000 nM
